The values that follow come from publication PMC8876998.

Where “and” joins values, the source holds several entries; their conditions need not be identical. Equal entries are not always repeated.

The target in experiment [1] is Getah virus capsid protein (Getah virus (GETV), strain SC483). Briefly: cryo-EM structure.
Experiment [2] concerns the target Getah virus envelope glycoprotein E2 (Getah virus (GETV), strain SC483). Briefly: cryo-EM structure.

A word on the stoichiometry N: it is a count of units in the complex or per binding partner. Take “Getah virus capsid protein (natural protein)”: the stoichiometry N in experiment [1] was 6 and 5.

In experiment [2], “Getah virus envelope glycoprotein E2 (natural protein)” gave a stoichiometry N of 3.
